The values that follow come from PMC5095074 (2016).

B1: GST-E-cadherin-cytoplasmic domain (cd) [human] / Purified β-catenin [not stated] (parent complex)
chain 1: RAVVKEPLLPPEDDTRDNVYYYDEEGGGEEDQDFDLSQLHRGLDARPEVTRNDVAPTLMSVPRYLPRPANPDEIGNFIDENLKAADTDPTAPPYDSLLVFDYEGSGSEAASLSSLNSSESDKDQDYDYLNEWGNRFKKLADMYGGGEDD
chain 2: MATQADLMELDMAMEPDRKAAVSHWQQQSYLDSGIHSGATTTAPSLSGKGNPEEEDVDTSQVLYEWEQGFSQSFTQEQVADIDGQYAMTRAQRVRAAMFPETLDEGMQIPSTQFDAAHPTNVQRLAEPSQMLKHAVVNLINYQDDAELATRAIPELTKLLNDEDQVVVNKAAVMVHQLSKKEASRHAIMRSPQMVSAIVRTMQNTNDVETARCTAGTLHNLSHHREGLLAIFKSGGIPALVKMLGSPVDSVLFYAITTLHNLLLHQEGAKMAVRLAGGLQKMVALLNKTNVKFLAITTDCLQILAYGNQESKLIILASGGPQALVNIMRTYTYEKLLWTTSRVLKVLSVCSSNKPAIVEAGGMQALGLHLTDPSQRLVQNCLWTLRNLSDAATKQEGMEGLLGTLVQLLGSDDINVVTCAAGILSNLTCNNYKNKMMVCQVGGIEALVRTVLRAGDREDITEPAICALRHLTSRHQEAEMAQNAVRLHYGLPVVVKLLHPPSHWPLIKATVGLIRNLALCPANHAPLREQGAIPRLVQLLVRAHQDTQRRTSMGGTQQQFVEGVRMEEIVEGCTGALHILARDVHNRIVIRGLNTIPLFVQLLYSPIENIQRVAAGVLCELAQDKEAAEAIEAEGATAPLTELLHSRNEGVATYAAAVLFRMSEDKPQDYKKRLSVELTSSLFRTEPMAWNETADLGLDIGAQGEPLGYRQDDPSYRSFHSGGYGQDALGMDPMMEHEMGGHHPGADYPVDGLPDLGHAQDLMDGLPPGDSNQLAWFDTDL

The assay covers variants of B1. Put plainly: GST pull-down, immunoblot anti-β-catenin, quantified; purified proteins; mean ± SD of three experiments; parent: 1; read off a plot.
For chain 1 T57E, the ratio to parent is about 0.39.

As to chain 1 T57A, the ratio to parent is about 1.1.
